Among the data in the Human Domainome abundance scans (Beltran et al. 2025) are abundance fitness values, retold here.

± gives the uncertainty stated by the source.

The labels stand for the following.
B1: Ankyrin repeat and SAM domain-containing protein 6, residues 774 to 836; numbered along this chain, Q68DC2 (parent)
chain: DEDELTGILKKLSLEKYQPIFEEQEVDMEAFLTLTDGDLKELGIKTDGSRQQILAAISELNAG

In this series the parent is B1. As to the kind of experiment: abundance fitness (aPCA) (normalised: wild type 0, dead -1); higher = more abundant; growth selection in yeast, the domain comes from the species named. The note with it: Homo sapiens.
Consider F21S, for which the abundance fitness is -0.615 ± 0.06.

Turning to F21N, the abundance fitness was -0.553 ± 0.16.

On to A56W, for which the abundance fitness was -0.708 ± 0.064.

With A56Y, the abundance fitness was -0.109 ± 0.053.

Consider A56K, for which the abundance fitness was -0.202 ± 0.051.

In the case of A56C, the abundance fitness was determined as 0.007 ± 0.051.

Regarding A56V, the abundance fitness was -0.133 ± 0.043.

In the case of A56H, the abundance fitness is -0.147 ± 0.075.

As to I53D, the abundance fitness is -0.33 ± 0.12.

On to I53E, for which the abundance fitness was -0.319 ± 0.063.

With I53Q, the abundance fitness was -0.686 ± 0.063.

For I53L, the abundance fitness was -0.002 ± 0.039.

On to I53T, for which the abundance fitness was -0.345 ± 0.058.

As for I53A, the abundance fitness is -0.331 ± 0.045.

Consider I53V, for which the abundance fitness is -0.104 ± 0.048.

Consider I53N, for which the abundance fitness is -0.451 ± 0.068.

For the variant R50Y, the abundance fitness is -0.834 ± 0.084.

For the variant R50S, the abundance fitness is -0.524 ± 0.048.

Regarding R50F, the abundance fitness is -1 ± 0.11.

For R50E, the abundance fitness was -0.526 ± 0.058.

As to L12E, the abundance fitness is -0.949 ± 0.18.

In the case of L12W, the abundance fitness was -0.061 ± 0.054.

Turning to L12C, the abundance fitness is -0.023 ± 0.077.

L12N: the abundance fitness was -0.402 ± 0.29.

With L12T, the abundance fitness is -0.35 ± 0.083.

Turning to A30T, the abundance fitness is -0.125 ± 0.055.

As to A30V, the abundance fitness is -0.093 ± 0.047.

For the variant A30K, the abundance fitness came to 0.001 ± 0.065.

Consider A30R, for which the abundance fitness was 0.096 ± 0.035.

Turning to A30E, the abundance fitness was -0.073 ± 0.062.

Regarding K40Q, the abundance fitness was -0.142 ± 0.096.

Turning to K40G, the abundance fitness was -0.31 ± 0.057.

For the variant K40C, the abundance fitness was -0.215 ± 0.11.

Regarding K40L, the abundance fitness was -0.036 ± 0.037.

K40Y: the abundance fitness is -0.115 ± 0.061.

On to G37K, for which the abundance fitness was found to be 0.033 ± 0.054.

On to G37A, for which the abundance fitness stood at 0.004 ± 0.05.

As to G37S, the abundance fitness is -0.058 ± 0.049.

As to G37P, the abundance fitness was -0.035 ± 0.051.

D3C: the abundance fitness was 0.057 ± 0.078.

Regarding D3T, the abundance fitness is -0.118 ± 0.091.

Turning to D3R, the abundance fitness was -0.064 ± 0.046.

In the case of D3Y, the abundance fitness was determined as 0.116 ± 0.086.

For D3S, the abundance fitness was determined as 0.054 ± 0.05.

For the variant E23S, the abundance fitness was -0.168 ± 0.047.

With E23N, the abundance fitness is -0.165 ± 0.068.

Take E23G: the abundance fitness was -0.229 ± 0.062.

For the variant E23V, the abundance fitness is -0.593 ± 0.068.

Turning to E23M, the abundance fitness is -0.318 ± 0.067.

With E23D, the abundance fitness was -0.155 ± 0.085.

Take Q51T: the abundance fitness is -0.163 ± 0.045.

For Q51M, the abundance fitness was -0.215 ± 0.053.

Consider Q51P, for which the abundance fitness was -0.54 ± 0.059.

Consider Q51A, for which the abundance fitness is -0.084 ± 0.046.

Consider Q51W, for which the abundance fitness was -0.724 ± 0.059.

Consider Q51N, for which the abundance fitness is -0.044 ± 0.08.

For the variant Q51G, the abundance fitness was -0.216 ± 0.044.

As to Q51S, the abundance fitness was -0.082 ± 0.037.

Consider S49R, for which the abundance fitness was -0.192 ± 0.053.

S49Y: the abundance fitness is -0.242 ± 0.073.

Consider S49E, for which the abundance fitness worked out at 0.181 ± 0.044.

With S49W, the abundance fitness is -0.391 ± 0.073.

On to S49L, for which the abundance fitness was -0.191 ± 0.051.

S49G: the abundance fitness was -0.055 ± 0.033.

For S49H, the abundance fitness is 0.009 ± 0.075.

Take Q52T: the abundance fitness is -0.2 ± 0.059.

Consider Q52D, for which the abundance fitness turned out to be 0.112 ± 0.073.

For Q52G, the abundance fitness was -0.279 ± 0.043.

On to T46V, for which the abundance fitness is -0.138 ± 0.053.

In the case of T46M, the abundance fitness was -0.039 ± 0.062.

For the variant T46I, the abundance fitness was -0.019 ± 0.085.

With T46E, the abundance fitness was found to be 0.084 ± 0.072.

Turning to T46D, the abundance fitness came out at 0.118 ± 0.093.

As to T46G, the abundance fitness is -0.011 ± 0.074.

T46F: the abundance fitness was -0.361 ± 0.075.

Turning to T46Y, the abundance fitness was -0.197 ± 0.067.

On to T46L, for which the abundance fitness was -0.116 ± 0.044.

In the case of T46N, the abundance fitness was -0.159 ± 0.091.

For E2Q, the abundance fitness was found to be 0.11 ± 0.19.

As for E2N, the abundance fitness was found to be 0.047 ± 0.084.

Take E2Y: the abundance fitness was found to be 0.063 ± 0.078.

With E2V, the abundance fitness was -0.234 ± 0.065.

As for E2G, the abundance fitness is -0.158 ± 0.059.

For E2P, the abundance fitness is 0.112 ± 0.16.

With K16Y, the abundance fitness was -0.251 ± 0.066.

Turning to K16M, the abundance fitness is -0.084 ± 0.086.

Take K16Q: the abundance fitness was -0.253 ± 0.13.

K45V: the abundance fitness was -0.225 ± 0.05.

For the variant K45N, the abundance fitness is -0.079 ± 0.072.

For the variant K45R, the abundance fitness was -0.027 ± 0.041.

Turning to I57H, the abundance fitness was -0.254 ± 0.14.

For the variant I57Q, the abundance fitness is -0.116 ± 0.062.

As for I57C, the abundance fitness was -0.277 ± 0.051.

On to E29P, for which the abundance fitness is -0.105 ± 0.056.

For the variant E29D, the abundance fitness is -0.107 ± 0.05.

Take E29K: the abundance fitness was 0.099 ± 0.039.

With E29N, the abundance fitness is -0.32 ± 0.22.

Take E29L: the abundance fitness is -0.51 ± 0.046.

For E29C, the abundance fitness was -0.338 ± 0.065.

As to M28D, the abundance fitness is -0.466 ± 0.097.

As to M28N, the abundance fitness is -0.315 ± 0.11.

Turning to M28L, the abundance fitness was -0.155 ± 0.04.

For M28Y, the abundance fitness was -0.106 ± 0.07.

In the case of M28G, the abundance fitness is -0.213 ± 0.043.

Consider A55P, for which the abundance fitness is -0.528 ± 0.067.

For the variant A55F, the abundance fitness is -0.256 ± 0.065.

Take A55T: the abundance fitness was 0.063 ± 0.077.

Turning to A55W, the abundance fitness is -0.386 ± 0.055.

Consider A55M, for which the abundance fitness was -0.21 ± 0.094.

Regarding A55N, the abundance fitness worked out at 0.014 ± 0.082.

Consider A55K, for which the abundance fitness was 0.112 ± 0.096.

A55L: the abundance fitness is -0.159 ± 0.05.

Take L32K: the abundance fitness came to 0.264 ± 0.059.

On to L32R, for which the abundance fitness was 0.039 ± 0.043.

In the case of L32D, the abundance fitness was -0.408 ± 0.068.

L32A: the abundance fitness was -0.097 ± 0.055.

For L32V, the abundance fitness was -0.103 ± 0.049.

Turning to G7P, the abundance fitness was -0.111 ± 0.068.

G7N: the abundance fitness was -0.092 ± 0.13.

Take G7Q: the abundance fitness came out at 0.177 ± 0.099.

Take G7D: the abundance fitness came to 0.039 ± 0.092.

On to G7K, for which the abundance fitness came to 0.048 ± 0.081.

F31N: the abundance fitness is -0.441 ± 0.07.

Regarding F31D, the abundance fitness is -0.51 ± 0.056.

Take F31P: the abundance fitness is -0.469 ± 0.07.

F31T: the abundance fitness is -0.638 ± 0.058.

In the case of E41K, the abundance fitness is -0.109 ± 0.059.

With E41C, the abundance fitness was -0.113 ± 0.061.

Regarding E41F, the abundance fitness is -0.376 ± 0.06.

For the variant E41N, the abundance fitness is -0.052 ± 0.092.

As for E41A, the abundance fitness is -0.047 ± 0.043.

Regarding E41M, the abundance fitness was -0.263 ± 0.049.

As to E41H, the abundance fitness was -0.045 ± 0.051.

Take E41Y: the abundance fitness was -0.321 ± 0.068.

For E41Q, the abundance fitness was 0.044 ± 0.051.

E59Q: the abundance fitness is -0.097 ± 0.061.

With E59P, the abundance fitness was -0.614 ± 0.073.

Regarding E59N, the abundance fitness was -0.212 ± 0.17.

With E59H, the abundance fitness was 0.047 ± 0.071.

For the variant E59D, the abundance fitness is -0.078 ± 0.079.

For the variant K10W, the abundance fitness was -0.831 ± 0.066.

K10C: the abundance fitness was -1.01 ± 0.095.

Consider K10A, for which the abundance fitness was -0.069 ± 0.052.

Turning to K10N, the abundance fitness is -0.481 ± 0.067.

Take K10Q: the abundance fitness was -0.233 ± 0.088.

Regarding K10D, the abundance fitness was -0.663 ± 0.087.

Regarding K10V, the abundance fitness is -0.595 ± 0.049.

As to D36V, the abundance fitness was -0.571 ± 0.055.

For D36E, the abundance fitness is -0.051 ± 0.069.

With D36I, the abundance fitness was -0.642 ± 0.086.

Turning to D36L, the abundance fitness was -0.702 ± 0.046.

D36Q: the abundance fitness is -0.565 ± 0.072.

For D36T, the abundance fitness was -0.532 ± 0.054.

On to D36F, for which the abundance fitness is -1.02 ± 0.092.

In the case of D36N, the abundance fitness is -0.252 ± 0.084.

Regarding L14W, the abundance fitness is -0.946 ± 0.088.

As to L14G, the abundance fitness was -1.05 ± 0.083.

For L14C, the abundance fitness was -0.64 ± 0.078.

L14Y: the abundance fitness is -0.97 ± 0.12.

In the case of K11G, the abundance fitness is -0.224 ± 0.064.

As for K11L, the abundance fitness was -0.363 ± 0.044.

Take K11P: the abundance fitness is -0.689 ± 0.061.

On to K11D, for which the abundance fitness was -0.166 ± 0.079.

For the variant K11E, the abundance fitness is -0.391 ± 0.12.

Turning to G43C, the abundance fitness is -0.742 ± 0.11.

In the case of G43R, the abundance fitness was -0.616 ± 0.054.

For G43H, the abundance fitness is -0.556 ± 0.14.
